According to paper PMC7534572:

Experiments:
[1] = biological target: HpiI (Hymenoscyphus scutula); assay: crystal structure
[2] = biological target: PdxI (Aspergillus bombycis); assay: crystal structure

| stoichiometry N [1] | stoichiometry N [2] | Substance |
| --- | --- | --- |
| 2 | – | HpiI (enzyme) |
| – | 2 | PdxI (enzyme) |
